The text below walks through data of patent publication US20260275319A1 (MAX PLANCK GESELLSCHAFT ZUR F RDERUNG DER WISSENSCHAFTEN E V, published 2026).

Experiment [1] concerns the target T1, MtrF of M. mazei (subunit of the MtrA-MtrH complex), from whole cell extract (Methanosarcina mazei).
T1 sequence (P80654 whole entry, looked up): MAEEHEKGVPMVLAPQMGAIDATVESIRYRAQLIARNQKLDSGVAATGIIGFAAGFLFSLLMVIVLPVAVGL
Briefly: pulldown from M. mazei whole cell extract with HA-tagged Adriase, LC-MS/MS (Experiment 2.3).

In experiment [2] the target is T2, MtrH of M. mazei (subunit of the MtrA-MtrH complex), from whole cell extract (Methanosarcina mazei).
T2 sequence (P80650 1-316, looked up): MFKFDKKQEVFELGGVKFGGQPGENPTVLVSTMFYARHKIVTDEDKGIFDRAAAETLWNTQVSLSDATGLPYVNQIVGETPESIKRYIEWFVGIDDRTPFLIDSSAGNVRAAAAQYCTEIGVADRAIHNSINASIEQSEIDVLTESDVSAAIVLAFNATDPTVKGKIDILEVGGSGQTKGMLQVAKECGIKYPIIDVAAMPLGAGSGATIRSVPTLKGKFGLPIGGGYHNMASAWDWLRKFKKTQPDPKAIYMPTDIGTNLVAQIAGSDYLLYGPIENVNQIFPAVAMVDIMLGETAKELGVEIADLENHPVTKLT
Described as above.

The target in experiment [3] is T3, MtrG of M. mazei (subunit of the MtrA-MtrH complex), from whole cell extract (Methanosarcina mazei).
T3 sequence (P80656 whole entry, looked up): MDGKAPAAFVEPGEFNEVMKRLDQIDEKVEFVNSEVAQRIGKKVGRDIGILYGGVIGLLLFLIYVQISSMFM
The experiment is described as above.

Experiment [4] concerns the target T4, MtrB of M. mazei (subunit of the MtrA-MtrH complex), from whole cell extract (Methanosarcina mazei).
T4 sequence (P80655 whole entry, looked up): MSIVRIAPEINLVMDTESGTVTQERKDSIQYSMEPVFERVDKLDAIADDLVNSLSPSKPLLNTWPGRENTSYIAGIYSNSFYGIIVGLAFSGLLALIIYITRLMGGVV
The experiment is described as above.

For experiment [5], the target named is T5, MtrE of M. mazei (subunit of the MtrA-MtrH complex), from whole cell extract (Methanosarcina mazei).
T5 sequence (P80651 whole entry, looked up): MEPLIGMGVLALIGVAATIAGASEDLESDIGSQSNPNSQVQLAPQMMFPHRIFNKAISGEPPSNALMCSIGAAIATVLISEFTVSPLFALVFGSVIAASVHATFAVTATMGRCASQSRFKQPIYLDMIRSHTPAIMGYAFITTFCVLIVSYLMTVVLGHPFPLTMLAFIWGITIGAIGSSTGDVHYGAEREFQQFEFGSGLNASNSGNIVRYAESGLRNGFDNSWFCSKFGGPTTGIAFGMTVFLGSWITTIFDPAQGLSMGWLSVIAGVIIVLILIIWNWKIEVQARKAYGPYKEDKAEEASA
Described as above.

Experiment [6] has as its target T2, MtrH of M. mazei (subunit of the …). Briefly: pulldown from M. mazei whole cell extract with Strep-tagged Adriase, LC-MS/MS (Experiment 2.1).
Experiment [7] has as its target T3, MtrG of M. mazei (subunit of the …). The experiment is described as above.
Experiment [8] concerns the target T4, MtrB of M. mazei (subunit of the …). The experiment is described as above.
The target in experiment [9] is T5, MtrE of M. mazei (subunit of the …). The description is as above.
For experiment [10], the target named is T2, MtrH of M. mazei (subunit of the …). Briefly: pulldown from M. mazei whole cell extract with Myc-tagged Adriase, LC-MS/MS (Experiment 2.2).
Experiment [11] addresses T3, MtrG of M. mazei (subunit of the …). The experiment is described as above.
The target in experiment [12] is T4, MtrB of M. mazei (subunit of the …). The description is as above.
Experiment [13] has as its target T5, MtrE of M. mazei (subunit of the …). The description is as above.

B1: M. mazei Adriase with C-terminal HA-tag (enzyme)
chain: TLVIAFIGKNGAVMAGDMREITFEGEKPDREKLEKELYSGSIVTDEEMQKKAEEFGVKITVADCKEKVSERNGVLVGEVSSAEGGVVKKRRLYASAGNFAIAELINTEMTLTSQGKGSNFIAFGNEFTKQVANKCFKDNWTKKSNLQDAVKILILCMETVARKTASVSKQFMIVQTASNADVLKVVEKDRNCGSYPYDVPDYA
notes: also called MM_2909
For B1, the “Intensity (mass spectrometry)” value was 430000 arbitrary units in experiment [1]; 2e+08 arbitrary units in experiment [2]; 1.5e+07 arbitrary units in [3]; 6.2e+06 arbitrary units in experiment [4]; 3.8e+06 arbitrary units in [5].

B2: M. mazei Adriase with C-terminal Strep-tag (enzyme)
chain: TLVIAFIGKNGAVMAGDMREITFEGEKPDREKLEKELYSGSIVTDEEMQKKAEEFGVKITVADCKEKVSERNGVLVGEVSSAEGGVVKKRRLYASAGNFAIAELINTEMTLTSQGKGSNFIAFGNEFTKQVANKCFKDNWTKKSNLQDAVKILILCMETVARKTASVSKQFMIVQTASNADVLKVVEKDRNCGSWSHPQFEK
notes: also called MM_2909; Archaeal Peptide Recombinase
Take B2: the “Intensity (mass spectrometry)” value was determined as 6e+07 arbitrary units in experiment [6], 860000 arbitrary units in [7], 1.4e+06 arbitrary units in experiment [8] and 2.1e+06 arbitrary units in experiment [9].

B3: M. mazei Adriase with C-terminal Myc-tag (enzyme)
chain: TLVIAFIGKNGAVMAGDMREITFEGEKPDREKLEKELYSGSIVTDEEMQKKAEEFGVKITVADCKEKVSERNGVLVGEVSSAEGGVVKKRRLYASAGNFAIAELINTEMTLTSQGKGSNFIAFGNEFTKQVANKCFKDNWTKKSNLQDAVKILILCMETVARKTASVSKQFMIVQTASNADVLKVVEKDRNCGSEQKLISEEDL
notes: also called MM_2909
For B3, the “Intensity (mass spectrometry)” value in [10] stood at 6.5e+07 arbitrary units; in [11], 1.2e+06 arbitrary units; in experiment [12] it was 3.2e+06 arbitrary units; in [13], 2.2e+06 arbitrary units.
